In publication PMC5815892 (Clinical cancer research : an official journal of the …, 2017):

How the values were obtained:
[1] = molecular target: purified fibulin-3 (human) (Homo sapiens (Human)., UniProt Q12805); test: SPR
[2] = molecular target: T1, free DSL-like peptide from human fibulin-3 (Thr25-Glu47) (Homo sapiens (Human).); test: ELISA
T1 chain: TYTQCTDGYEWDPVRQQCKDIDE

Chain of purified fibulin-3 (human) (Q12805 18-493): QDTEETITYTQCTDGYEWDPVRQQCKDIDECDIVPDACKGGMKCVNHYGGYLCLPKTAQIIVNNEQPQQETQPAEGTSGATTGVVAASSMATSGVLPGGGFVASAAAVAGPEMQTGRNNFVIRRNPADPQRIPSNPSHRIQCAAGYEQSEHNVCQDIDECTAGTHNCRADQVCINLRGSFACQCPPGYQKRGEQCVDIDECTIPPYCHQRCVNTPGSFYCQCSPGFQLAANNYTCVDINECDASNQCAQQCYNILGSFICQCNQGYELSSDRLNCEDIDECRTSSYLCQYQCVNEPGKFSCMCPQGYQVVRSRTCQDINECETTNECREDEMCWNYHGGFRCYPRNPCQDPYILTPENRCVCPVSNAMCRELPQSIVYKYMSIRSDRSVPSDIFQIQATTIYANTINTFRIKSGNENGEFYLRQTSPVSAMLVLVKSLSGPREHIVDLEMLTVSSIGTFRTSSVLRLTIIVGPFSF

B1: mAb428.2 (anti-fibulin-3 clone mAb428.2.3C11.H11.G3) (antibody, V domains shown)
VH: QIQLVQSGPELKKPGETVKISCKASGYSFTTYGMSWVKQAPGKGLKWMGWINTYSGVPTYADDFKGRFAFFLETSASTAYLQINNLKNEDTATYFCARWVDYWGQGTTLTVSS
VL: DIKMTQSPSSMYASLGERVTITCKASQDIKSYLSWHQQKPWKSPKTLIYYATSLADGVPSRFSGSGSGQDYSLTISSLESDDTATYYCLQHGKSPYTFGGGTKLEIK
In the case of B1, the Kd [1] is reported as 5 ± 1 nM and the binding result [2] is reported as “binds”.
